Results published in publication PMC13343975, “A connection between two ancient and essential cellular processes, iron-sulfur protein biogenesis and fatty acid synthesis, in Escherichia coli” (mBio, 2026).

B1: 6His-ACP (natural protein, E. coli, UniProt P0A6A8 1-78, looked up)
chain: MSTIEERVKKIIGEQLGVKQEEVTNNASFVEDLGADSLDTVELVMALEEEFDTEIPDEEAEKITTVQAAIDYINGHQA
modifications: preparation expected to comprise a mixture of apo-ACP, holo-ACP (phosphopantetheine-bound ACP, on Ser36) and a minor fraction of acylated ACP
notes: acyl carrier protein (ACP), E. coli; ACP-coding region (primers OSD146/OSD147, start codon to stop codon, 263 bp fragment) between EcoRI and XhoI of pET6His-TEV; The vector's name tells a TEV site between the 6His tag and the protein; no cleavage is told; also called ACPWT; wild-type ACP; source: E. coli MG1655(DE3), 10 mM pantothenate in the culture, purified (Ni-nitrilotriacetic acid agarose); …

Columns and labels:
6His-IscS [1] = molecular target: T1, 6His-IscS (E. coli, UniProt P0A6B7 1-404)
T1 construct: IscS cysteine desulfurase, E. coli; IscS-coding region (primers OSD56/OSD57, start codon to stop codon, 1,248 bp fragment) between EcoRI and XhoI of pET6His-TEV; The vector's name tells a TEV site between the 6His tag and the protein; no cleavage is told; also called pET-6His-TEV-iscS; source: E. coli MG1655(DE3), purified (Ni-nitrilotriacetic acid agarose); not shown: 6His, N-terminal, kept

6His-IscS [2] = molecular target: T1, 6His-IscS; test: native gel or EMSA; 6His-IscS 15 µM with 6His-ACP or variant 30 µM, 20 min at 37°C in 100 mM Hepes, 150 mM NaCl; non-denaturing 12% PAGE, Coomassie Blue; settings: both partners purified

T1 sequence (P0A6B7 whole entry, the tested form may be a part): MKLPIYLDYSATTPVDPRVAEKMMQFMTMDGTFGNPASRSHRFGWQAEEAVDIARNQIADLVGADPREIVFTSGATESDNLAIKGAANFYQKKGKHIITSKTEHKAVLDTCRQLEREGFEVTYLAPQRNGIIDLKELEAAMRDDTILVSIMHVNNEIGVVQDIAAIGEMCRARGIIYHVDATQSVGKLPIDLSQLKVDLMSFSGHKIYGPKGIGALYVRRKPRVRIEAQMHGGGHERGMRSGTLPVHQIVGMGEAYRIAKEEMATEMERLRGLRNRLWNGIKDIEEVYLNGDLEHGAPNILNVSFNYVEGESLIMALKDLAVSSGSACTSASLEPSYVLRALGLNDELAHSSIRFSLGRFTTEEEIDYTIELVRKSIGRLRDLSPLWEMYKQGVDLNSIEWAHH

Molecule | cysteine desulfurase activity of IscS (methylene blue assay), relative to IscS alone (6His-IscS [1]) | binding result (6His-IscS [2])
acylated 6His-ACP (from UniProt P0A6A8 1-78) (natural protein) | 3 fold | 
B1 |  | binds
